Experimental data published in US20250019428A1 (Janssen / Centocor, published 2025).
Positions count from the first letter of the chain named. Names may count otherwise.

T1: human lymphotoxin (human, UniProt P01374 35-205, limits assumed)
T1 sequence (looked up): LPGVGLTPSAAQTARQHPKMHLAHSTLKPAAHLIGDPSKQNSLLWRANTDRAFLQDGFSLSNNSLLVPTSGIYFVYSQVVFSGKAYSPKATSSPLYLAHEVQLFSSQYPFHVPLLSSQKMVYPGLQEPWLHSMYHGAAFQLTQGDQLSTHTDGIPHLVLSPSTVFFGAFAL

B1: GenTNV148.26.12 (antibody, human IgG1, kappa, V domains shown)
VH: QVQLVESGGGVVQPGRSLRLSCAASGFIFSSYAMHWVRQAPGNGLEWVAFMSYDGSNKKYADSVKGRFTISRDNPKNTLYLQMNSLRAEDTAVYYCARDRGIAAGGNYYYYGMDVWGQGTTVTVSS
VL: EIVLTQSPATLSLSPGERATLSCRASQSVYSYLAWYQQKPGQAPRLLIYDASNRATGIPARFSGSGSGTDFTLTISSLEPEDFAVYYCQQRSNWPPFTFGPGTKVDIKR
notes: Hybridoma-derived human IgG1 kappa; also called C420A
B2: GenTNV86.14.34 (antibody, human IgG1, kappa, V domains shown)
VH: B1 VH
VL: B1 VL
notes: The constant region allotype is uncertain, as explained in the m8 note; also called C417A
B3: GenTNV15.28.11 (antibody, V domains shown)
VH: B1 VH with I28T, N43K, M51I, S52L, P75S, T78A, I102V, A103S
VL: EIVLTQSPATLSLSPGERATLSCRASQSVSSYLAWYQQKPGQAPRLLIYDASNRATGIPARFSGSGSGTDFTLTISSLEPEDFAVYYCQQRSNWPPFTFGPGTKVDIK
B4: golimumab (antibody, human IgG1, kappa, V domains shown)
VH: B1 VH with P75S
VL: B1 VL
modifications: N-glycosylated on asparagine 306
notes: Fully human IgG1 kappa; The commercial material is expressed in Sp2/0 cells; also called SIMPONI

Tests used:
recombinant human TNFα [1] = molecular target: T2, recombinant human TNFα (human, UniProt P01375 77-233, 125I-labeled in the receptor inhibition assay); assay: competition radioligand assay: mAb in hybridoma supernatant preincubated with 5 ng/ml 125I-TNFα, then binding of 125I-TNFα to plate-coated p55-sf2 counted as cpm bound
T2 construct: It is not expressly tied to the assay protein, so it is not used here; also called huTNFα; tumor necrosis factor alpha
Description: Varying amounts of hybridoma cell supernatants containing known amounts of TNV mAb were preincubated with a fixed concentration (5 ng/ml) of ¹²⁵I-labeled TNFα. […] The amount of TNFα that bound to the p55 receptor in the presence of the mAbs was determined after washing away the unbound material and counting using a gamma counter. […] Each sample was tested in duplicate. The results shown are representative of two independent experiments.
(§1) 50:1 of p55-sf2 at 0.5:g/ml in PBS was added to Optiplates to coat the wells during a one-hour incubation at 37° C. Serial dilutions of the eight TNV cell supernatants were prepared in 96-well round-bottom plates using PBS/0.1% BSA as diluent. […] The mixture was preincubated for one hour at RT. The coated Optiplates were washed to remove unbound p55-sf2 and 50:1 of the ¹²⁵I-TNFα/cell supernatant mixture was transferred to the Optiplates. After 2 hrs at RT, Optiplates were washed three times with PBS-Tween. […] of Microscint-20 was added and the cpm bound determined using the TopCount gamma counter.
A simple binding assay was done to determine whether the eight TNV mAbs contained in hybridoma cell supernatant were capable of blocking TNFα binding to receptor.

recombinant human TNFα [2] = molecular target: T2, recombinant human TNFα; assay: cell-based or functional assay
recombinant human TNFα [3] = molecular target: T2, recombinant human TNFα; assay: competition: 125I-TNFα binding to coated p55-sf2, hybridoma supernatants
Description: as §1
A simple binding assay was done to determine whether the eight TNV mAbs contained in hybridoma cell supernatant were capable of blocking TNFα binding to receptor. The concentrations of the TNV mAbs in their respective cell supernatants were first determined by standard ELISA analysis for human IgG.

human lymphotoxin = molecular target: T1, human lymphotoxin; assay: not described

| Binder | IC50 (read off the curve) (recombinant human TNFα [1]) | neutralizing TNFα bioactivity (recombinant human TNFα [2]) | fold better at blocking TNF binding (against TNV118 and TNV14) (recombinant human TNFα [3]) | binding result (human lymphotoxin) |
| --- | --- | --- | --- | --- |
| B1 | ~3 ng/mL | 4 fold | ~4 fold |  |
| B2 |  |  | ~4 fold |  |
| B3 | ~3 ng/mL |  |  |  |
| B4 |  |  |  | no binding |
